Experimental data: patent US20210171630A1 (MacroGenics, published 2021)

B1: DART-Z (bispecific antibody)
chain 1: QSALTQPPSASGSPGQSVTISCTGTSSDVGGYNYVSWYQHHPGKAPKLIISEVNNRPSGVPDRFSGSKSGNTASLTVSGLQAEDEAEYYCSSYTDIHNFVFGGGTKLTVLGGGSGGGGEEVQLVQSGAEVKKPGESLKVSCKASGYTFTSYYMHWVRQAPGQGLEWMGIINPSGGSTSYAQKFQGRVTMTRDTSTSTVYMELSSLRSEDTAVYYCARGSAYYYDFADYWGQGTLVTVSSASTKGEVAACEKEVAALEKEVAALEKEVAALEK
chain 2: QPVLTQPSSVSVAPGQTATISCGGHNIGSKNVHWYQQRPGQSPVLVIYQDNKRPSGIPERFSGSNSGNTATLTISGTQAMDEADYYCQVWDNYSVLFGGGTKLTVLGGGSGGGGQVQLQESGPGLVKPSQTLSLSCTVSGGSSSSGAHYWSWIRQYPGKGLEWIGYIHYSGNTYYNPSLKSRITISQHTSENQFSLKLNSVTVADTAVYYCARGTRLRTLRNAFDIWGQGTLVTVSSASTKGKVAACKEKVAALKEKVAALKEKVAALKE
notes: also called 4-LS21
B2: DART-H (bispecific antibody)
chain 1: DIVMTQSPDSLAVSPGERATIHCKSSQTLLYSSNNRHSIAWYQQRPGQPPKLLLYWASMRLSGVPDRFSGSGSGTDFTLTINNLQAEDVAIYYCHQYSSHPPTFGHGTRVEIKGGGSGGGGEVQLVESGGGLVKPGGSLRLSCAASGFTFSNYGMSWVRQAPGKGLEWVATISGGGSYTFYPDSVKGRFTISRDNAKNSLYLQMNSLRTEDTALYYCVRQSARAPEPYWGQGTLVTVSSASTKGEVAACEKEVAALEKEVAALEKEVAALEKGGGDKTHTCPPCPAPEAAGGPSVFLFPPKPKDTLMISRTPEVTCVVVDVSHEDPEVKFNWYVDGVEVHNAKTKPREEQYNSTYRVVSVLTVLHQDWLNGKEYKCKVSNKALPAPIEKTISKAKGQPREPQVYTLPPSREEMTKNQVSLWCLVKGFYPSDIAVEWESNGQPENNYKTTPPVLDSDGSFFLYSKLTVDKSRWQQGNVFSCSVMHEALHNHYTQKSLSLSPGK
chain 2: DIQMTQSPSFLSASVGDRVTITCRASQNVGTHVAWYQQKPGKAPKSLLYSASYRYSGVPSRFSGSGSGTDFTLTISSLQSEDIATYYCQQYKSYPLTFGQGTKLEIKGGGSGGGGQVQLVQSGGGVFKPGGSLRLSCEASGFTFTEYYMTWVRQAPGKGLEWLAYISKNGEYSKYSPSSNGRFTISRDNAKNSVFLQLDRLSADDTAVYYCARADGLTYFSELLQYIFDLWGQGARVTVSSASTKGKVAACKEKVAALKEKVAALKEKVAALKE
chain 3: not shown
notes: Three-chain diabody; hCD16-M1 x 7B2
B3: DART-4 (bispecific antibody)
chain 1: DIVMTQSPDSLAVSPGERATIHCKSSQTLLYSSNNRHSIAWYQQRPGQPPKLLLYWASMRLSGVPDRFSGSGSGTDFTLTINNLQAEDVAIYYCHQYSSHPPTFGHGTRVEIKGGGSGGGGQVTLRESGPALVKPTQTLTLTCTFSGFSLSTSGMGVGWIRQPPGKALEWLAHIWWDDDKRYNPALKSRLTISKDTSKNQVVLTMTNMDPVDTATYYCAQINPAWFAYWGQGTLVTVSSASTKGEVAACEKEVAALEKEVAALEKEVAALEKGGGDKTHTCPPCPAPEAAGGPSVFLFPPKPKDTLMISRTPEVTCVVVDVSHEDPEVKFNWYVDGVEVHNAKTKPREEQYNSTYRVVSVLTVLHQDWLNGKEYKCKVSNKALPAPIEKTISKAKGQPREPQVYTLPPSREEMTKNQVSLWCLVKGFYPSDIAVEWESNGQPENNYKTTPPVLDSDGSFFLYSKLTVDKSRWQQGNVFSCSVMHEALHNHYTQKSLSLSPGK
chain 2: DIVMTQSPDSLAVSLGERATINCKASQSVDFDGDSFMNWYQQKPGQPPKLLIYTTSNLESGVPDRFSGSGSGTDFTLTISSLQAEDVAVYYCQQSNEDPYTFGQGTKLEIKGGGSGGGGQVQLVQSGGGVFKPGGSLRLSCEASGFTFTEYYMTWVRQAPGKGLEWLAYISKNGEYSKYSPSSNGRFTISRDNAKNSVFLQLDRLSADDTAVYYCARADGLTYFSELLQYIFDLWGQGARVTVSSASTKGKVAACKEKVAALKEKVAALKEKVAALKE
chain 3: not shown

Experiments:
Experiment in all cases: SPR (ProteOn); CD16-His immobilized via anti-PentaHis, diabody passed over
[1] = target: T1, Human CD16A V158F, His tagged (R&D Systems) (human, UniProt P08637 17-208)
T1 construct: Bought (R&D Systems); also called CD16-His tagged molecules; not shown: His tag
Experimental: (§1) A ProteOn analysis was conducted to assess the binding of the CD16 Binding Domains of the constructed diabodies to CD16-His tagged molecules (R&D Systems) that had been immobilized on a chip. The CD16 molecules were immobilized via an anti-PentaHis antibody, followed by incubation incubation with the diabodies.

[2] = target: T2, Human CD16A 158V, His tagged (R&D Systems) (human, UniProt P08637 17-208)
T2 construct: Bought (R&D Systems); also called CD16-His tagged molecules; not shown: His tag
Experimental: as §1

[3] = target: T3, Human CD16B, His tagged (R&D Systems) (human, UniProt O75015 17-200)
T3 construct: Bought (R&D Systems); also called CD16-His tagged molecules; not shown: His tag
Experimental: as §1

T2 sequence (P08637 17-208 F176V limits assumed): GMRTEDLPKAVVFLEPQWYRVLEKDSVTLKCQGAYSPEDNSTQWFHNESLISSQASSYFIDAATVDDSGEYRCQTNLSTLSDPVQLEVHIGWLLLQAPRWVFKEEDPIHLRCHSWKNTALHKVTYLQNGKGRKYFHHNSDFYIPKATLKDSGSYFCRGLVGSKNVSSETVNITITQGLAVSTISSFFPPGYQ
T1 sequence (P08637 17-208 limits assumed, stated change not applied): as the sequence (P08637 17-208 F176V limits assumed) above, with V160F counted along it
T3 sequence (O75015 17-200 limits assumed): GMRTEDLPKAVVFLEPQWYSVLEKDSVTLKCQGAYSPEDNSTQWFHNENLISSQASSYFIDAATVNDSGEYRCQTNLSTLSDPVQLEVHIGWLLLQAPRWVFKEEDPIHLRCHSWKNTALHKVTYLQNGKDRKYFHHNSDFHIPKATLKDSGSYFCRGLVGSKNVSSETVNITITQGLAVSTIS

Row | Binder | Kd [1] [nM] | Kd [2] [nM] | Kd [3] [nM] | kon [2] [M⁻¹ s⁻¹]
1 | B1 | 15.2 | 15.7 | – | –
2 | B2 | 0.04 | 0.1 | 0.4 | –
3 | B3 | 76.8 | 23.3 | 7.8 | 290000
